Paper PMC4157841, “Ethylmalonic Encephalopathy ETHE1 R163W/R163Q Mutations Alter Protein Stability and Redox Properties of the Iron Centre” (PLoS ONE, 2014)
Positions count from the first letter of the chain named. Names may count otherwise.

B1: Human ETHE1 wild type (enzyme, UniProt O95571 8-254, looked up)
chain: VARRQLSQRGGSGAPILLRQMFEPVSCTFTYLLGDRESREAVLIDPVLETAPRDAQLIKELGLRLLYAVNTHCHADHITGSGLLRSLLPGCQSVISRLSGAQADLHIEDGDSIRFGRFALETRASPGHTPGCVTFVLNDHSMAFTGDALLIRGCGRTDFQQGCAKTLYHSVHEKIFTLPGDCLIYPAHDYHGFTVSTVEEERTLNPRLTLSCEEFVKIMGNLNLPKPQQIDFAVPANMRCGVQTPTA
notes: Holds about 1 mol iron per mol protein; also called ETHE1-WT; wild-type ETHE1; source: E. coli Bl21 DE3, purified (His-trap HP, Superdex 75 size exclusion)
B2: Human ETHE1-p.Arg163Trp (enzyme, UniProt O95571 8-254, looked up)
chain: B1 chain with R156W
notes: also called ETHE1 R163W; source: E. coli Bl21 DE3, purified (His-trap HP, Superdex 75 size exclusion)
B3: Human ETHE1-p.Arg163Gln (enzyme, UniProt O95571 8-254, looked up)
chain: B1 chain with R156Q
notes: also called ETHE1 R163Q; source: E. coli Bl21 DE3, purified (His-trap HP, Superdex 75 size exclusion)

Target: the molecule itself
Assay: SEC; Superdex 75 in 50 mM Tris-HCl pH 7.5, 150 mM NaCl, column calibrated with standard proteins; native molecular mass determined; data not shown

Row | Protein | stoichiometry N
1 | B1 | 2
2 | B2 | 2
3 | B3 | 2
